Laboratory results reported in the DeepSol protein solubility set.

assay: soluble on expression in E. coli; label from the status in PepcDB or PDB records

| Sequence | soluble on expression in E. coli |
| --- | --- |
| MKYKRVLLKLSGEFLTRNGFGIEPEATQALAREIKAAYDTGVQLAIVIGAGNLWRGARQGVGMDRATADYIGMLATIMNALALQDALESLGVPTRVQTALTITQVAEPYIRRRALRHLEKERIVIFGGGTGNPFFSTDTAAALRALEVGAEVVLMAKNKVDGVYSDDPRKNPEAVRFDELTYLEVLNRGLQVMDTTAITLCMEAGLPIVVFDIFKPGALVGIIQGEKVGTLIH | soluble |
| MKYQVKQVAEISGVSIRTLHHYDNIELLNPSALTDAGYRLYSDADLERLQQILFFKEIGFRLDEIKEMLDHPNFDRKAALQSQKEILMKKKQRMDEMIQTIDRTLLSVD | soluble |
| MKYVLIQATDNGILRRAECGGAVTALFKYLLDKKLVDGVLALKRGEDVYDGIPTFITNSNELVETAGSLHCAPTNFGKLIAKYLADKKIAVPAKPCDAMAIRELAKLNQINLDNVYMIGLNCGGTISPITAMKMIELFYEVNPLDVVKEEIDKGKFIIELKNGEHKAVKIEELEEKGFGRRKNCQRCEIMIPRMADLACGNWGAEKGWTFVEICSERGRKLVEDAEKDGYIKIKQPSEKAIQVREKIESIMIKLAKKFQKKHLEEEYPSLEKWKKYWNRCIKCYGCRDNCPLCFCVECSLEKDYIEEKGKIPPNPLIFQGIRLSHISQSCINCGQCEDACPMDIPLAYIFHRMQLKIRDTLGYIPGVDNSLPPLFNIERLEHHHHHH | soluble |
| MLAFKVVISDKEKSVQMEVDPSESRGLIGLTIGDEFDGSIIGLSGYKLKITGGSDKNGFPMKKTVPGARRIRSLVSGGVGYKPRRDGERRRKTFRGNTISDDIVQINTVVIEKLEHHHHHH | not soluble |
| MLARLLLSFSVVLTAFGVGAAEVDKTQPYQMMKQVAEVTFARLKAEQPKIKQDPNLLKVIVEQELMPYVNDRYAALKLLGPNLKGAKREDVLEFVDAFRAYLIASYAQVLTQYSDQQIEFGPEPKLDDSKRITSIKVEIIDAPRPNIKLEFKLRKDNKTDEWEAFDMVAEGISLLSSKQSEWNTKIRQDGILAVAQDLEKLAAEPIRFEAKK | soluble |
| MLARYLNLIGRRSASPYRPQRLPAKFDNVIVAMSSGVDSSVAAALFAGEFPNTRGVYMQNWSESQSLDDPGKEPCYERDWRDVNRVAKHLNIRVDKVNFEQDYWIDVFEPMLRGYSEGSTPNPDIGCNKFVKFGKLREWLDEKYGTGNYWLVTGHYARVMQEMNGKGLFHLLRSIYRPKDQSYYLSQINSTVLSSLLLPIGHLTKPEVRDLAKYAGLPTAEKPDSQGICFVNNSQHGKFKNFLKHYLPSSPGDIITVDPQSGAKTTWGRHDGLWSYTIGQKVGISMPQADPNYQGTWFVSEKLRDTNEILIVRGRDNPALYSDTMRIENFSSLGPREDTINAFQNTGALTLQFRSLQVPVQIKSCKLNRSADNLDITIHLASKQRAITPGQSCCLYIDDRVLGSGPISHVNNNDTHA | soluble |
| MLAYPHLFTPLDLGFTTLKNRILMGSMHTGLEELPDGPQRLAAFYAERAAGGVGLIVTGGIAPNMKGGVYQGASVLNDAAQIPHHQVVTEAVHQAGGKIALQILHAGRYSYQKHPVAPSALQAPINPFVPQALSHEEILQTIADFAHCAQLAKQAGYDGVEIMGSEGYLINQFLTARTNQRDDEWGGDFTHRMRFAVEIVRAVRQATGHDFILIYRLSMLDLVEEGSNWVEIEQLAQAVEQAGATVINTGIGWHEARIPTIATMVPRAGFSWVTRKLMGKVNIPLITTNRINDPAVAEQVLADGCADMVSMARPFLADAAFVQKAAQGRADEINTCIGCNQACLDQIFDGKLTSCLVNPRACRETEMPELPTDAPKRLAVVGAGPAGLAFAVTAARRGHQVTLFDAAAEIGGQFNIAKQIPGKEEFYETLRYFRRQLVLNGVTLQLNTLVQVKQLAEFDEVILACGIQPRLPCINGIDHPKVLTYLDVLRDKKPVGQRVAIIGAGGIGFDTAEYLSQSGDSPRFDSTAFSTEWGIDQDLAHRGGLSPAGAKVPPSPRQIFLLQRKASKVGEGLGKTTGWIHRTSLAMRGVKMLNSVSYEAIDDKGLHIIRAEQACCLPVDTIIICAGQEPRRELHQPLLDMGKTVYLIGGADKAVELDARRAIDQGTRLALAI | not soluble |
| MLCTVTEKLYYDDMYMKEFQAEVVSVDSNGIVLDRTAFYPTGGGQPNDTGIIVNDDKTYRVVDVQKHGDDVVHILESVDGLKAGDRIYGKIDWERRYAHMRYHTAIHILDGIVSAKHNSEALLTGGQIYEDRSRIDMNIENFTKEFVDQIIQEANEFISEGHRVYAENISREEAMKRPNLARTEPGRKLIESLPVVRIIVIEGLDEQSDGGTHVANTREVGKIVLRKIENKGRKNKRIEFELSPA | not soluble |
| MLDDIPITIQKSKKIKTLSLNITPSLEVILKMPNSCSQTRASAFLKEQEAWLKKTFLSMQEKHSLLRTNLEKYQNKILVFDEVKNANDYTLTELKKILKTYLEQKLPLIAQKMQTSYTHFSIRNNAKVLGSCSYHNRLSFALLLVCAQKEAIDYVIIHELAHTIHKNHSKNFWRCVQIFCPNYRALRERLKQNTIFYAQLLKTLQPLEHHHHHH | soluble |
| MLDDVRLLANGLLQLGQSLREFVHKTKSQTNDIFQKLNIFDRSFYQLSVVTSEIKEEEEKLKGLSQPITVSIHQPEQRAKHTKEA | not soluble |
| MLDKIRFTVLLDRPFYQPGQTIQGHVVCEPHHPLEIDCVEGRLHGEIQYFQQLPPNHNRNGSPLPPSKTRVLIDEKAQLWKYQTVSEMLGLDVFYDENQNRHFSSESASASSSSLFTTAATFPIQIELPHFAPPSFYCPGSPVSIRFTLEIQLYNQGFKIASHEENLVVLNYESIKRQVTPKPVNFQKTFNFPKERSISLEMLLPTDVFTTTARLENCITICNRWKQSLKYVHLNIVRRISALNQNNEVIDTVKIDTTGVGLPSKTKIAVGETYSFRPTFNVPALPPNIHVNGLFKTEYSLKVTIGRAHNFVLASYEVPITIVTMDQSSRRSMQKEDILVDISASNNTLNNLPVDLLA | not soluble |
| MLDPARSYDLIGDVHGCALTLEHLLDRLGYHKQAGVWRHPSRMAVFLGDIIDRGPRIRESLHIVHDMVEAGQALCIMGNHEFNALGWSTPAAEGSGKQFVREHTPRHARLIHETLTQFEQHPGDWHDFLQWFYELPLFVDAGRFRVVHACWDAGLIAPLRQQYPNGCIDREFLQSAAVPDSFACTAFDRLLRGTDMRLPHGLTMTSGDGLTRAFFRTKFWEDDPQTYGDIVFQPDALPEPVARTPLSPAEKNSLLRYGAEEPMLFVGHYWRSGKPAPIRPNLACLDYSAVLYGKLAAYRLDQETRLDPNKFVWVDVERPEVVRLEHHHHHH | not soluble |
| MLDPGPNPAPRPSRDRAPHAVVIGSGFGGLAAAVRLGAKGYRVTVLEKLDKAGGRAYVHKQDGFSFDAGPTIVTAPYLFEELWKLCGKRMSDDITLKPMSPFYRIRFDDGTHFDYSDDRDAVLDQIAKFCPDDVPAYDRFMAASHEIFKVGFEQLGDQPFSHFTDMLKIAPAMIKLESYRSVYGLVAKHFKDPKLRQVFSFHPLLIGGNPFMSSSVYCLITYLEKQWGVHSAMGGTGALVTGLVNLIEGQGNTIRYNQDVRQIVVENGTACGVKLADGEVIKADIVVSNADSASTYRYLLPPETRKRWTDAKIEKSRYSMSLFVWYFGTKRRYEDVKHHTILLGPRYKELISDIFSRKVVAEDFSLYLHRPTATDPSLAPQGCDTFYVLSPVPNLLGDTDWHTKAETYRASIAKMLGATVLPDLENQIATSKITTPIDFQDRLSSFRGAAFGLEPVLWQSAWFRPHNQSEDVKRLYLVGAGTHPGAGLPGVLSSARVLDALVPEADSLVTSLEHHHHHH | not soluble |
| MLDYVPWIGNGYRYGNNHRGSNSSTSGVTTQGQSQNASSNEPAPTFSNVGVGLKANVNGTLSGSRTTPNQQGTPWLTLDQANLQLWTGAGWRNDKNGQSDENYTNFASAKGSTNQQGSTTGGSAGNPDSLKQDKADKSGDSVTVAEATSGDNLTNYTNLPPTSPPHPTDRTRCHSPTRTTPSGCSCSCAACWAASRCWSIRVGKMITVSLIPPTKNGLTPNLEHHHHHH | not soluble |
| MLEAPLLSICIPAYNRPNWLQRGLESIAVGEGSDIEIVITDDSDTDQGQAIASEVLKNWSGSWCYEHHQQPLGMAQNWNRAIQWATGQYVMVLHDDDFFLPQGLGLLVNKLRQLGSSSPVLLFGVRVVDAQERVVKRQGFRQDKLLPPHDALIRLFSDSSFVRFPAMVIRRDLFTEVGYFNPDWREPCDLEMWMRLFARYGVYCCREATVAYRVHGQALTMGSFHGETVNILLRLFGELEKLNILTTRDIEFCKGLFFHQYILAGAWRQLRRRRWREFKQVMGLFDLPELKSLSCPVKWRFLRGLFSLTLEHHHHHH | not soluble |
| MLEDMSKDALFYNYYAQWIEVYKKDAIREATMAKYRMTQKWVEKLAPELKVCELTRTAYQKILNDYAKEHERQTTLDFHHQLKGAVMDAVDEGLIERDPTRKAIIKGKTPREKKIKYLNQFELHTLIADLDIKEEPNWDWFILLVAKTGMRFSEALAITPKDFDFGRQTLSISKTWDYKGKGGFLPTKNKSSVRKIQIDWQIVVKFSELIKGLPEDEPIFVGEEKIYNSTVNDALTRHCKACGISEISIHGLRHTHASLLLFAGVSIASVARRLGHASMTTTQKTYLHIIQELENKDVDLVMRTLSGL | soluble |
| MLEVLVALAIFATAAISVIRSVSQHINTVSYLEEKMFAAMVVDNQMANVMLDTGALKAKNGTEELAGRTWYWKVTPVATTQPLLKAFDVSVATAKNASPVVTVRSYVAQ | not soluble |
| MLFDMDGVLFDSMPYHAEAWHKTMKAHGLNLSREEAYMHEGRTGAGTINIVCQRQLGRDATQEEIESIYLEKSIEFNKHPQAERMPGAWELLQKIKAEGIIPTVVTGSGQASLLDRLEHNFPGMFRQELMVTAFDVKYGKPNPEPYLMALEKGGLKPNEAIVIENAPLGVEAGHKAGIFTIAVNTGPLNGEILLNAGADLLFPSMQALCESWEKLVRLLH | not soluble |
| MLFHLPKLPAELRVSHLNARVNEQRKKIAQTTASKLEFLQLTQQLVKEAKIRKKNNQKIFVLDFKGDIQASAVDQLREEITLILATAKSGKDRVVLRLESPGGMVHGYGLAAAQLVRLRDAGFHLTIVVDKVAASGGYMMACIANEIVSAPFAILGSIGVVAQVPNFNRLLKEHNVDFELYTAGEYKRTVTMFGENTPEGKAKFEEELKQTHALFKHFVEKYRPQLNVEKVATGEHWYGQDALDLNLVDKLQTSDEYLLSLLPQHDVYVITTRKKPTLGERLGLQAAQLADSFIPAVMNKVVESLVNANSHLVQMRDPKILEHHHHHH | not soluble |
| MLFKARKWILSGASAQKSKSMAHTMLVENGFILPTAKGFYSLLPLGQRVIDKLCRILDVEFQNSGALKIAMPIVGTQQLWEKTGRWEAMGPEMIRFHDRQQNHMCLQPTAEEMCTELIATLSPLKKSQFPLIVYQIGEKFRDEMNPRFGLMRGRQFLMKDMYSFSTDAETSQQTYAQIRQIYDRIFGEILQLDEDVIKVEADSGVHGGHISHEYHLKSSLEEDFVNFCENCKNHNKFEGPGPAKCEKCAENSSKTVQKIPSVEIAHTFHLGTKYSEALGAKFQGKPLDMCCFGIGVTRLLPAAIDLLSVSDKALRLPRAIAPFDAVIIVKKSLMSNVIVEMASSSASRYLKGGILLDDRVEMSAGKRIHDANRLGIPFILVIANETERSLATQKPVIEVFTTHAKSAEPMSQGSMSLDRFVTFVQSTLYGGGGAHDSGHLAHNQVLDQLGSHQH | not soluble |
| MLGHNKISVIIPAYNEERRIGNVLKGIPDFVDEVIVVDDGSSDGTSKVAMELGATVIRLNKNSGKGAAMREGLKISTGDIIVFMDADGQHNPKEIYRLVKPIVEGRADLVIGRRIITRGKRPMSRKISNFITTRLITLKTRKKILDTQSGFRAIRREFVPVIESDRYEVETEVLIKAIKKGARILEVPISTRYDVETGHFKMIDIFRFLFALIKYLEHHHHHH | not soluble |
